Results on three molecules are retold here after paper doi:10.1101/2021.06.14.448427 (bioRxiv, 2021).

In assay [1] the target is T1, NTF of c-CDCP1 Cut 1 ectodomain (ending after K365) (human, UniProt Q9H5V8 30-365).
T1 sequence (looked up): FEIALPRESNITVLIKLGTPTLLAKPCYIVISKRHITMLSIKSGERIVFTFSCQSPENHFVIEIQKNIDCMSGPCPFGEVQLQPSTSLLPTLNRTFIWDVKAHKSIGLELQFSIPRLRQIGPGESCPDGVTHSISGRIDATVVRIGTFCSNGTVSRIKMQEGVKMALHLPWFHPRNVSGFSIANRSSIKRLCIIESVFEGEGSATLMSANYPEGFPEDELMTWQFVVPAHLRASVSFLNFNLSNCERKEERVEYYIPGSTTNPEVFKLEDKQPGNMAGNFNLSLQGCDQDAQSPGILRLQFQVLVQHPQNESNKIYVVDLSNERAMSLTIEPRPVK
In words: SEC.

Assay [2] deals with T2, NTF of c-CDCP1 Cut 2 ectodomain (ending after R368) (human, UniProt Q9H5V8 30-368).
T2 sequence (looked up): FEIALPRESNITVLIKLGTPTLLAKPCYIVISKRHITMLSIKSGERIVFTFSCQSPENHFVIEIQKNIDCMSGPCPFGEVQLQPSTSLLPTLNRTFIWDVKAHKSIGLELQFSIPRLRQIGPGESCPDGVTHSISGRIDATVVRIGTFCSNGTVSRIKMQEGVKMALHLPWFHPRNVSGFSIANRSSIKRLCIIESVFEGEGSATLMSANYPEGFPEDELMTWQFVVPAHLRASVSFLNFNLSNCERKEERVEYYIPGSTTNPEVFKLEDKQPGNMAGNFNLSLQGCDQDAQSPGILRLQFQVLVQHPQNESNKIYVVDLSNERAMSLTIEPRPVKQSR
The experiment in a line: SEC.

Assay [3] addresses T3, NTF of c-CDCP1 Cut 3 ectodomain (ending after K369) (human, UniProt Q9H5V8 30-369).
T3 sequence (looked up): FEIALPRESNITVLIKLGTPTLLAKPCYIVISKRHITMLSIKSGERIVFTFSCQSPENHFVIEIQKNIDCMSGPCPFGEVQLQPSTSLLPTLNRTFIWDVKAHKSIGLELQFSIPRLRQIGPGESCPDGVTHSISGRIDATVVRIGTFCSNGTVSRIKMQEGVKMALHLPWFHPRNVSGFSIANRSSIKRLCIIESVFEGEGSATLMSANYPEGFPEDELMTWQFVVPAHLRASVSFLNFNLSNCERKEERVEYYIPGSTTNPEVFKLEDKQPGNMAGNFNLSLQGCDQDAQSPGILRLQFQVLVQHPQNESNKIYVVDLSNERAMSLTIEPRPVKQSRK
In words: co-purification after co-transfection.

B1: CTF ectodomain of c-CDCP1 Cut 1 (starting after K365) (domain or fragment, human, UniProt Q9H5V8 366-665, looked up)
chain: QSRKFVPGCFVCLESRTCSSNLTLTSGSKHKISFLCDDLTRLWMNVEKTISCTDHRYCQRKSYSLQVPSDILHLPVELHDFSWKLLVPKDRLSLVLVPAQKLQQHTHEKPCNTSFSYLVASAIPSQDLYFGSFCPGGSIKQIQVKQNISVTLRTFAPSFQQEASRQGLTVSFIPYFKEEGVFTVTPDTKSKVYLRTPNWDRGLPSLTSVSWNISVPRDQVACLTFFKERSGVVCQTGRAFMIIQEQRTRAEEIFSLDEDVLPKPSFHHHSFWVNISNCSPTSGKQLDLLFSVTLTPRTVD
As to B1, in assay [1], the binding result is listed as “binds”.

B2: CTF ectodomain of c-CDCP1 Cut 2 (starting after R368) (domain or fragment, human, UniProt Q9H5V8 369-665, looked up)
chain: KFVPGCFVCLESRTCSSNLTLTSGSKHKISFLCDDLTRLWMNVEKTISCTDHRYCQRKSYSLQVPSDILHLPVELHDFSWKLLVPKDRLSLVLVPAQKLQQHTHEKPCNTSFSYLVASAIPSQDLYFGSFCPGGSIKQIQVKQNISVTLRTFAPSFQQEASRQGLTVSFIPYFKEEGVFTVTPDTKSKVYLRTPNWDRGLPSLTSVSWNISVPRDQVACLTFFKERSGVVCQTGRAFMIIQEQRTRAEEIFSLDEDVLPKPSFHHHSFWVNISNCSPTSGKQLDLLFSVTLTPRTVD
In the case of B2, the binding result in assay [2] was “binds”.

B3: CTF ectodomain of c-CDCP1 Cut 3 (starting after K369) (domain or fragment, human, UniProt Q9H5V8 370-665, looked up)
chain: FVPGCFVCLESRTCSSNLTLTSGSKHKISFLCDDLTRLWMNVEKTISCTDHRYCQRKSYSLQVPSDILHLPVELHDFSWKLLVPKDRLSLVLVPAQKLQQHTHEKPCNTSFSYLVASAIPSQDLYFGSFCPGGSIKQIQVKQNISVTLRTFAPSFQQEASRQGLTVSFIPYFKEEGVFTVTPDTKSKVYLRTPNWDRGLPSLTSVSWNISVPRDQVACLTFFKERSGVVCQTGRAFMIIQEQRTRAEEIFSLDEDVLPKPSFHHHSFWVNISNCSPTSGKQLDLLFSVTLTPRTVD
With B3, the binding result in assay [3] is reported as “binds”.
